Measurements reported in the nanobody polyreactivity screen of Harvey et al. (2022).

Assay: yeast display, Sf9 membrane polyspecificity reagent, FACS + sequencing; frameworks hold sequencing errors
In short: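 Using colony PCR, genes from sorted yeast display clones were amplified, then sequenced on MiSeq at 2 × 250 and filtered by CDR length. The clones had been stained with 10% biotinylated, detergent-solubilized Sf9 membrane reagent for 1 hour at 4 °C and sorted by FACS into low and high (top ~1%) gates on anti-HA and streptavidin fluorescence. Polyreactivity labels come from the gate of origin.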

Sequence	polyreactivity (PSR sort gate)
QVQLVESGGGLVQARGSLRLSCAASGRTYAGYAMGWYRQAHGKERELVASITSGGRTYYADSVKGRFTISRDNAKNTVYLQMNSLKPEDTAVYYCNKVYKSYYWGGYDWGQGTQVTVSS	high polyreactivity
QVQLVVSGGGLVQAGGSLRLSCAASGFIFYRYAMGWYRQAPGKEWELVAAISRSGGTTYYADSVKGRFTISRDNAKNTVYLQKNSLKPEDTAVYYCNVKRGTIGGYYYWGQGTQVTVSS	high polyreactivity
QVQLVESGGGLVQAGGSLRLSCAASGSTFYVYAMGWYRPAPGKERELVATISSSGAITYYADSVKGRFTISGDNAKNTVYLQMNSLKPEDTAVYYCARTGSLLSQVWYNYWGQGTQVTVSS	low polyreactivity
QVQLVESGGGLVQAGGSLRLSCAASGSTFIYNAMGWYRQAPGKERELVAAITDGSTKYADSVKGRFTISRDNAKNTVYLQMNSLKPEDTAVYYCNAYVWRWRYDSWGQGTQVTVSS	low polyreactivity
QVQLVESGGGLVQAGGSLRLSCAASGINFRSYAMGWYRQAPGKERELVAAISSTGRTYYADSVKGRFTISRDNAKNTVYLQMISLKPEDTAVYYCNSKRYIWGQGTQVTVSS	high polyreactivity
QVQLVESGGGLVQAGGSLRLSCAASGIIFSTYAMGWYRQAPGKERELDATITSSGSNTYYADSVKGRFTISRDNAKNTVYLQMNSLKPEDTAVYYCNAVASHYDFGYWGQGTQVTVSS	high polyreactivity
QVQLVESGGGLVQAGGSLRLSCAASGFIFVANAMGWYRQAPGKERELVADINRGSTYYADSVKGRFTISRDNAKNTVYLQMNSLKPEDTAVYYCNRVYTQTYNPWGFEYWGQGTQVTVSS	high polyreactivity
QVQLVESGGGLVQAGGSLRLSCAASGSTFDRNAMGWYRKAPGKERELVAAISKRSGSTYYADSVKGRFTISRDNAKNTVYLQMNSLKPEDTAVYYCAADRISYRGMGSWGQGTQVTVSS	high polyreactivity
QVQLVESGGGLVQAGGSLRLSCAASGRIFPVNAMGWYRQATGKERELVARISWRGGTYYADSVKGRFTISRDNAKNTVYLQMNSLKPEDTAVYYCAATLPSTSYWYQYGYWGQGTQVTVSS	high polyreactivity
QVQLVESGGGLVQAGGSLRLSCAASGSIFIINAMGWYRQAPGKERELVAAINNGVNTYYADSVKGRFTISRDNAKNTVYLQMNSLKPEDTAVYYCAADPYFYYYGYDYWGQGTQVTVSS	low polyreactivity
QVQLGESGGGLVQAGGSLRLSCAASGSIFRYYVMGWYRQAPGKERELVATISRDSSRNYADSVKGRFTISRDNAKNTVYLQMNSLKPEDTAVYYCNTEGGVIRSYWYDYWGQGTQVTVSS	low polyreactivity
QVQLVESGGGLVQAGGSLRLSCDASGRIFQYNAMGWSRQAPGKLRELVAAITVGGSTNYADSVTGRFTISRDNAKNTVYLQKNSLKPEDTAVSYCNKAWSSSWQVTYGICGQGTQVTVSS	high polyreactivity
QVQIVESGGGLVQAGGSLRLSCAASGRTFAYYSMGWYRPAPGKEREFVAAISRSGGSTYYADSVKGRFTISRDNAKNTVYLQMNSLKPEDTAVYYCNARYIWKQYRYDYWGQGTQVTVSS	high polyreactivity
HVQLQESGGGLVLAGGSLRLSCPASGNIVVYSYMGWYRQAPGKAREFVAAIGAGSTTYYADSVSRFTISRDNAKNSVYLQMNSLKQVDTAVYYCSVEFQYAGFWYWGQGTQVTVSS	low polyreactivity
QVHLVESGGGLVQAGGSLRLSCAASGRIFPGYAMGWYRQAPGKERELVAAISWIGGDTYYADSVKGRFTISRDNAKNTVYLQMNSLIPEDTAVYYCAARYGRHRVSWYATWRYGYWGQGTQVTVSS	low polyreactivity
QVQLVESGGGLVQAGGSLRLSCAASGSTFDDYAMGWYRQAPGKERELVAAISRSDGSTSYADSVKGRFTISRDNAKNTVYLQMNSLKPEDTAVYYCAADPVFKDDLWPVRVRVDYWGQGTQVTVSS	low polyreactivity
QVQLVESGGGLVQAGGSLRLSCAASGFTFWRYAMGWYIQAPGKERELVAAISYSGGRTYYADSVKGRFTISRDNAKNTVYLQMNSLKPEDTAVYYCAASRVTYGGPYRDDYDYWGQGTQVTVSS	high polyreactivity
QVQLVESGGGLVQAGGSLRLSCAASGSMFFWYVMGWYRQAPGKERELVASISSGGSTYYADSVKGRFTISRDNAKNTVYLQMNSLKPEDTAVYYCNAKSWSPAKSFSFFRFDYWGQGTQETVSS	low polyreactivity
QVQLVESGGGLVQAGGTLRLSCAASGFIFGPNAMGWYRQAPGKERELVAAISWIGSSTYYADSVKGRFTISRDNAKNTVYLEMNSLKPEDTAVYYCNADLWVPSYLWGDYWGQGTQVTVSS	low polyreactivity
QVQLVESGGGLVQAGGSLRLICAASGSIFDYYTRGWYRQAPGKERELVASITQSGGSTYYADSVKGRFTISRDNGKNTVYLQMNSLKPEDTAVYYCAADFSIVKMDYWGQGTQVTVSS	low polyreactivity
QVQLVESGGGLVQAGGSLRLSCAASGSIFTENEMGWYRQAPGKERELVATITITGSTNYADSVKGRFTISRDNAKNTVYLQMNSLKPEDTAVYYCAAEQPYKSPWTFGGYDYWGQGTQVTVSS	low polyreactivity
QVQLVESGGGLVQAGGSLRLSCAASGFTFSLYDMGWYRQAPGKERELVAAISSDGSTNYADSVKGRFTISRDNAKNTVYLQMNSLKPEDTAVYYCAADETFLSYWLNYWGQGTQVTLSS	low polyreactivity

Sequence	polyreactivity (PSR sort gate)
QVQLVESGGGLVQAGGSLRLSCAASGSTFSLYAMGWYRQAPGKERELVAAISSGGRTYYADSVKGRFTISRDNAKNTVYLQMNSLKPEVTAVYYCAVYVAYLYSYYYWGQGTQVTVSS	low polyreactivity
QVQLVESGGGLVQAGGSLRLSCAASGRTSRSYTMGWYRQSPGKERELVAAITRGGRTYYADSVKGRFTISRDNAKNTVYLQMNSLKPEDTAVYYCATDRVQSYGYWGQGTQVTVSS	low polyreactivity
QVQLVESGGGLVQAGGSLRLSCAASGSIIHNYDMGWYRPAPGTETEFVAAINWSGGNTHYADSVKGRFTISRDNAKNTFYLQMNSLKPEDTAVYYCAADSGFDTAPYDYWGQGTQVTVSS	low polyreactivity
QVQLVESGGGLVQAGGSLRLSCAASGRIFDTNFIGWYRLAPGKERELVAANSQSGGITYYADSVKGRFTISRDNAKKTVYLQMNSLKPEDTAVYYCAKDTVTVSFNEYDYWGQGTQVTVSS	low polyreactivity
EVQLVESRGGLVQAGGSLRLSSADSGLTFPYNTMGWYRQAPGTERELVAAITARGGRTYYADSVKGRFTISRDNAKNTVYLQMNSLKPEDTAVYYCNADRTRGYQRYDYWGQGTQVTVSS	high polyreactivity
QVQLVESGGGLVQAGGSLRLSSAASGSTFYRYAMGWYRQAPGKERELVAAISRSGGNTFYADSVKGRFTISRDNAKNTVYLQMNSLKPEDTAVYYCAALRSWYGQTSGMDYWGQGTQVTVSS	high polyreactivity
QVQLEDSGGGLVQAGGSLPLSCAASGRTFGLNVMGWSRQATGTERELLASIRNIGGSTYYADSVKGRFTISCDNAKNTVYLQMNSLKPEDTAVFYCAAVTRSWVHYRYYYWGQGTQVTVSS	high polyreactivity
QLQLVESGGGLVQAGGSLRLSCAASGRTFRYNAMGWYRQAPGKERELVASISWRGGSTYYADSVKGRFTISRDNAKNTVYLQMNSLKPEDTAVYYCVADAAHSEYDYWGQGTQVTVSS	high polyreactivity
QVQLVETGGGLVHAGGSLRISCAASGLTFRGNAMGWYRQAPGKERELVATISSGGITNYADSVKGRFTISRDNAKNTVYLQMNSLKPEDTAVYYCAADWFVHKPRYQNSFDYWGQGTQVTVSS	low polyreactivity
QVQLEESGGGLVQAGGSLRLSCAAYGRTFPNYAMGRYRQAPGKEREMVADISSSGVSTYYADSVKGRFTISRDNAKNTVYLKMNSLKPEDTAVYYCAARSWWFQRGEYWGQGTQVTVSS	high polyreactivity
QVQLVESGGGLVQAGGSLRLSCAASGSIFVDNAMGWYRQAPGKDRELVAVISWIGSSTYYADSVKGRFTISRDNAKNTDYFQMNSLKPEDTAVYYCAAAPSRTLLRQSKYYYWGQGTQVTVSS	low polyreactivity
QVQLVESGGGLVQAGGSLRLSCAASGSTFRWNAMGWYRQAPGKERELVATITWGGGSTYYADSVKGRFTISRDNAKNTVYLQMNSLKPEDTAVYYCARRQRARYSYYQYNYWGQGTQVTVSS	high polyreactivity
QVQLVESGGGLVQAGGSLRLSCAASGSTFYVYAMGWYRQAPGKERELVAGITDSGGSTYADSVKGRFTISRDNAKNTVYLQMNSLKPEVTAVYYCAADGETLTPRILGESEGDYWGQGTQVTVSS	low polyreactivity
QVQLVESGGGLVQAGGSLRLSCAASGSTFEYYAMGWYRQAPGKERELVAAISTGGSTYYADSVKGRFTISRDNAKNTVYLQMNSLKPEDTAVYYCAALYRTSYVRMGYWGQGTQVTVSS	high polyreactivity
QVQHVESGGGLFQAGGSLRLSCAASGTTFRYYAMGWYRQAPVKERELVAYITTSGGTYYADSVKGRFTISRDNAKNTVYLQMNSLKPEDTAVDYCAARRQDYTYYRIYNFDYWGQGTQVTVSS	high polyreactivity
QVQLVESGGGLVQAGGSLRLSCAASGRTFYTYARGWYRQAPGKERELVAAITKRGGSTYYADSVKGRFTISRDYAKNTVYLQMNSLKPEDTAVYYCNQELATARGQSLYRTYSGYGYWGQGTQVTVSS	high polyreactivity
QVQLVESGGGLVQAGGSLRLSCAASGFIFPFYVRGWYRQAPGKERELVAAINTGGSTYYADSVKGRFTISRDNAKNTVYLQMNSLKPEDTAVYYCAAKSRVKKYYFYGYNYWGQGTQVTVSS	high polyreactivity
QVQLVESGGGLVQAGGSLRLSCAASGSTLRFYAMGWYRPAPGKERELVAAISSSGSSTYYADSVKGRFTISRDNAKNTVYLQLNSLKPEDTAVYYCSGYGYWGQGTQVTVSS	high polyreactivity
QVQLVESGVGLVQAGGSLRLSCAASGSPFRRNALGWYRQAPGKERELVAAITWRGTSTYYADSVKGRFTISRDNAKNTVYLQMNSLIPEDTAVYYFATSKSRLRYDYWGQGTQVTVSS	high polyreactivity
QVQLVESGGGLVQAGGSLRLSCAASGITFYEYAMGWYRQAPGKEREFVAAIDDGDSSTYYADSVKGRFTISRDNAKNTVYLQMNSLKPEDTAVYYCNADPYYDYSLNWGDYWGQGTQVTVSS	low polyreactivity
QVQLVESGGGLVQAGGSLRLSCAASGLTCSYYAMGWYRQAPGQERELVAAISITGSTNYADSVKGRFTISRDNAKNTVYLQMNSLKPEDTAVYYCAARVRSGTGVGFDYWGQGTQVTVSS	high polyreactivity
